Assay [1] has as its target T1, human GPRC5D (human, UniProt Q9NZD1 1-345).
T1 construct: whole, on cells; also called hGPRC5D; G-protein coupled receptor family C group 5 member D
Nature of the assay: flow cytometry (FACS) on NCI-H929 cells expressing hGPRC5D.

In assay [2] the target is T2, human CD3 on Jurkat cells (human, UniProt P07766 23-207).
T2 construct: whole, on cells; CD3 complex on cells; also called hCD3; Jurkat cell strain
Nature of the assay: flow cytometry (FACS) on Jurkat cells expressing hCD3. (A flow cytometer gives signals particle by particle.)

The target in assay [3] is T3, cynomolgus monkey CD3 (purchased from Acro, Cat. No. CDD-C52W4) (cynomolgus monkey, UniProt Q95LI5 22-117).
T3 construct: Bought reagent
T3 sequence (looked up): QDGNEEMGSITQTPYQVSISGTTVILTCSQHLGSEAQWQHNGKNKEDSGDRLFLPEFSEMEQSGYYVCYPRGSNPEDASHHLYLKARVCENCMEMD
Nature of the assay: SPR (Biacore 8K), CD3 immobilised on CM5 chip, bispecific antibody as analyte, 1:1 Langmuir fit. For orientation: SPR reads the build-up and loss of mass on a sensor chip optically.

In assay [4] the target is T4, human CD3 (purchased from Acro, Cat. No. CDD-H52W1) (human, UniProt P07766 23-126).
T4 construct: Bought reagent; also called human CD3 protein
T4 sequence (P07766 23-126): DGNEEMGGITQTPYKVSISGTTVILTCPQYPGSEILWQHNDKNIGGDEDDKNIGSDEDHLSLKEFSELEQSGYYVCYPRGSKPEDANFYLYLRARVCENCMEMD
The assay is described as above.

Assay [5] concerns the target T1, human GPRC5D. In words: flow cytometry (FACS) on RPMI8226 cells expressing hGPRC5D.
Assay [6] concerns the target T1, human GPRC5D. Nature of the assay: cell-based or functional assay.
For assay [7], the target named is T1, human GPRC5D. In words: flow cytometry on human GPRC5D-CHOK1 cells.
The target of assay [8] is T1, human GPRC5D. In words: flow cytometry on NCI-H929 cells.
The next assay has as its target T5, cynomolgus monkey GPRC5D (cynomolgus monkey).
T5 chain: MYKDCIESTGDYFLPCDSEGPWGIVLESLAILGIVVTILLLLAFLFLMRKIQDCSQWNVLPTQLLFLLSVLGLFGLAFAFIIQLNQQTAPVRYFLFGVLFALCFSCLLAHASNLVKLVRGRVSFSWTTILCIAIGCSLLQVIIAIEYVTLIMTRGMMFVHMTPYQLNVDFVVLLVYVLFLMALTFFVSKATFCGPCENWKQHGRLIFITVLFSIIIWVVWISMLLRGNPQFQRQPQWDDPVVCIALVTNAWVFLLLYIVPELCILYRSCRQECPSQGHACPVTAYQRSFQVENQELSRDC
In words: flow cytometry on cynomolgus monkey GPRC5D-CHOK1 cells.

Assay [9] addresses T1, human GPRC5D. In words: flow cytometry on human GPRC5D-CHOK1 cells. This is another data set of the same source.
A further assay deals with T6, human GPRC5A (human, UniProt Q8NFJ5 1-357).
T6 construct: whole, on cells; also called human GPRC5A-CHOK1 cell line
T6 sequence (Q8NFJ5 whole entry): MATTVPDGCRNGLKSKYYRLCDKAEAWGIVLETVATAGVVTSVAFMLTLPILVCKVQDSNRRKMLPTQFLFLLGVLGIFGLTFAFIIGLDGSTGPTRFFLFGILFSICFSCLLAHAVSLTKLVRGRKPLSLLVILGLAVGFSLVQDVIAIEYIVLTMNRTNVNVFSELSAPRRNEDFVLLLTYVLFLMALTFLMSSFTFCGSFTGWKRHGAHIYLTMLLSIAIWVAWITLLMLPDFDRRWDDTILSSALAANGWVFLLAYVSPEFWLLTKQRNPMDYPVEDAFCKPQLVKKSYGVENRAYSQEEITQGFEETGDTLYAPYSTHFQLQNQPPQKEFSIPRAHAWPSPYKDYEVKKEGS
Nature of the assay: flow cytometry on human GPRC5A-CHOK1 cells.

T1 sequence (Q9NZD1 whole entry): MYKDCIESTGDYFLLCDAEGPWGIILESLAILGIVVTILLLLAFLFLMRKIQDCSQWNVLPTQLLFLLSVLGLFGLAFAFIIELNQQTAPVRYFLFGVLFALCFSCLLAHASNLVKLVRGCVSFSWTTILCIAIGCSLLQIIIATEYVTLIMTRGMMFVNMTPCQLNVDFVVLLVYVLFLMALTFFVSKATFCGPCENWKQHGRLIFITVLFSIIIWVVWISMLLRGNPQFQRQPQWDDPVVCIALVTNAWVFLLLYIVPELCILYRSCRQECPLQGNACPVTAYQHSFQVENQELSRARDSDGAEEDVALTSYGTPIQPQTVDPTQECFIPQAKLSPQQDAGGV
T2 sequence (P07766 23-207): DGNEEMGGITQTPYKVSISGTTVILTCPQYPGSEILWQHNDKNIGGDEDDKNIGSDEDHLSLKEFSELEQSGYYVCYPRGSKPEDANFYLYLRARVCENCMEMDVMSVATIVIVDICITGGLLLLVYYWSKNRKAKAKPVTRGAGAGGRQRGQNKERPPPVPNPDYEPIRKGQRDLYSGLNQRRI

B1: Bispecific antibody 1 (bispecific antibody, human IgG1, kappa, L234A L235A)
heavy 1: not shown
heavy 2: QVQLVQSGAEVKKPGASVKVSCKASGYTFTSYIIHWVRQAPGQGLEWIGYINPYNDGTKYNEKFKGRVTMTSDTSTSTVYMELSSLRSEDTAVYYCARGGIRAFMNYWGQGTLVTVSSASTKGPSVFPLAPSSKSTSGGTAALGCLVKDYFPEPVTVSWNSGALTSGVHTFPAVLQSSGLYSLSSVVTVPSSSLGTQTYICNVNHKPSNTKVDKKVEPKSCDKTHTCPPCPAPEAAGGPSVFLFPPKPKDTLMISRTPEVTCVVVDVSHEDPEVKFNWYVDGVEVHNAKTKPREEQYNSTYRVVSVLTVLHQDWLNGKEYKCKVSNKALPAPIEKTISKAKGQPREPQVCTLPPSRDELTKNQVSLSCAVKGFYPSDIAVEWESNGQPENNYKTTPPVLDSDGSFFLVSKLTVDKSRWQQGNVFSCSVMHEALHNRYTQKSLSLSPGK
light: DIQMTQSPSSLSASVGDRVTITCKASQDVGTAVAWYQQKPGKAPKLLIYWASTRHTGVPSRFSGSGSGTDFTLTISSLQPEDFATYYCQHYISWTFGQGTKVEIKRTVAAPSVFIFPPSDEQLKSGTASVVCLLNNFYPREAKVQWKVDNALQSGNSQESVTEQDSKDSTYSLSSTLTLSKADYEKHKVYACEVTHQGLSSPVTKSFNRGEC
notes: 2+1 format: two GPRC5D Fabs and one CD3 scFv placed between a Fab and the Fc; also called anti-CD3-GPRC5D bispecific antibody 1; anti-GPRC5D/CD3 bispecific antibody
As for B1, the concentration for a half-maximal effect (EC50) (commonly the concentration at which the effect is half-maximal) with human GPRC5D [1] turned out to be 1.07 nM; in assay [2], 22.1 nM; in the assay with human GPRC5D [5] it was 7.48 nM. The Kd (in general, a measure of binding affinity in units of concentration) turned out to be 16.8 nM in assay [3] and 20 nM in assay [4]. For the same molecule, the dissociation rate constant (koff) (commonly a measure of how fast the partners let go of each other) amounted to 0.00292 s⁻¹ in assay [3] and 0.00226 s⁻¹ in [4]. For the same molecule, the results for the kon in assay [3] and in assay [4] were 174000 M⁻¹ s⁻¹ and 113000 M⁻¹ s⁻¹, respectively. In addition, in the assay with human GPRC5D [6], the “TDCC EC50(nM), NCI-H929 cell strain” value stood at 0.001 nM. Further, the “TDCC EC50(nM), RPMI8226 cell strain” value with human GPRC5D [6] amounted to 0.01 nM.

B2: Bispecific antibody 2 (bispecific antibody)
heavy: not shown
light: DIQMTQSPSSLSASVGDRVTITCKASQDVGTAVAWYQQKPGKAPKLLIYWASTRHTGVPSRFSGSGSGTDFTLTISSLQPEDFATYYCQHYISWTFGQGTKVEIKRTVAAPSVFIFPPSDEQLKSGTASVVCLLNNFYPREAKVQWKVDNALQSGNSQESVTEQDSKDSTYSLSSTLTLSKADYEKHKVYACEVTHQGLSSPVTKSFNRGEC
chain: DKTHTCPPCPAPEAAGGPSVFLFPPKPKDTLMISRTPEVTCVVVDVSHEDPEVKFNWYVDGVEVHNAKTKPREEQYNSTYRVVSVLTVLHQDWLNGKEYKCKVSNKALPAPIEKTISKAKGQPREPQVCTLPPSRDELTKNQVSLSCAVKGFYPSDIAVEWESNGQPENNYKTTPPVLDSDGSFFLVSKLTVDKSRWQQGNVFSCSVMHEALHNRYTQKSLSLSPGK
notes: 1+1 format: one GPRC5D Fab, one CD3 scFv between Fab and Fc, Fc-only hole chain; also called anti-CD3-GPRC5D bispecific antibody 2; anti-GPRC5D/CD3 bispecific antibody
As to B2, a half-maximal response with human GPRC5D [1] (EC50) required 5.19 nM. For the same molecule, the EC50 in [2] was found to be 12.9 nM. For the same molecule, in assay [3], the Kd is 18.9 nM; the koff was 0.00279 s⁻¹; the kon (in general, a measure of how fast the partners come together) came out at 147000 M⁻¹ s⁻¹. Besides, in assay [4], binding was characterised by a dissociation constant (Kd) of 18.1 nM, the koff came to 0.00214 s⁻¹ and the kon is 118000 M⁻¹ s⁻¹. This molecule registered an EC50 with human GPRC5D [5] of 22.9 nM. For the same molecule, in the assay with human GPRC5D [6], the “TDCC EC50(nM), NCI-H929 cell strain” value stood at 0.017 nM and the “TDCC EC50(nM), RPMI8226 cell strain” value is 0.08 nM.

B3: 18CH16H2L1 (humanized mouse hybridoma-derived anti-GPRC5D antibody) (antibody, V domains shown)
VH: QVQLVQSGAEVKKPGASVKVSCKASGYTFTSYIIHWVRQAPGQGLEWIGYINPYNDGTKYNEKFKGRVTMTSDTSTSTVYMELSSLRSEDTAVYYCARGGIRAFMNYWGQGTLVTVSS
VL: DIQMTQSPSSLSASVGDRVTITCKASQDVGTAVAWYQQKPGKAPKLLIYWASTRHTGVPSRFSGSGSGTDFTLTISSLQPEDFATYYCQHYISWTFGQGTKVEIK
notes: also called humanized clone 18CH16 antibody
For B3, the concentration giving a half-maximal response (EC50) in the assay with human GPRC5D [7] was 0.51 nM; with human GPRC5D [8] it was 0.3 nM.

B4: 18CH-16 (chimeric mouse hybridoma-derived anti-GPRC5D antibody) (antibody, V domains shown)
VH: EVQLQQSGPELVKPGASVKMSCKASGYTFTSYIIHWVKQKPGQGLEWIGYINPYNDGTKYNEKFKGKATLTSDRSSSTAYMEVSSLTSEDSAVYYCARGGIRAFMNYWGQGTSVTVSS
VL: DIVMTQSHKFMSTSVGDRVSITCKASQDVGTAVAWYQQKPGQSPKLLIYWASTRHTGVPDRFTGSGSGTDFTLSISNVQSEDLADYFCQHYISWTFGGGTNLEIK
notes: also called parent antibody
On to B4, for which the 50% effective concentration (EC50) was 4.39 nM in the assay with cynomolgus monkey GPRC5D and 3.89 nM with human GPRC5D [9]. In addition, the binding result with human GPRC5A is “no binding (tested: 100 nM (initial concentration))”.

Source of the values: EP4714974A1 (Shanghai Qilu Pharmaceutical Research and Development …, dated 2026).
